# Assay results from patent US20200079833A1 (AstraZeneca / MedImmune, published 2020).
# Starred links: 1 amine or outer side, 2 acyl side, 3 side chain; linkers in the order of their positions; H or OH if unused. Non-standard residues stand in square brackets, D forms with d. Groups on a side chain read outwards from the residue. Primed or numbered codes have the meaning given here. No end group written: not given here. *: point of attachment. γGlu = O=C(O)[C@H](CCC(=O)[*:2])N[*:1]; Stearoyl = CCCCCCCCCCCCCCCCCC(=O)*; Palmitoyl = CCCCCCCCCCCCCCCC(=O)*; αMeF = C[C@](N)(Cc1ccccc1)C(=O)O; αMeK = C[C@](N)(CCCCN)C(=O)O; αMeS = C[C@](N)(CO)C(=O)O; PEG2′ = not defined here; Aib = CC(C)(N)C(=O)O
# T1: GLP-1R (INS1e assay) (UniProt P32301 22-463, limits assumed)
# T1 sequence (looked up): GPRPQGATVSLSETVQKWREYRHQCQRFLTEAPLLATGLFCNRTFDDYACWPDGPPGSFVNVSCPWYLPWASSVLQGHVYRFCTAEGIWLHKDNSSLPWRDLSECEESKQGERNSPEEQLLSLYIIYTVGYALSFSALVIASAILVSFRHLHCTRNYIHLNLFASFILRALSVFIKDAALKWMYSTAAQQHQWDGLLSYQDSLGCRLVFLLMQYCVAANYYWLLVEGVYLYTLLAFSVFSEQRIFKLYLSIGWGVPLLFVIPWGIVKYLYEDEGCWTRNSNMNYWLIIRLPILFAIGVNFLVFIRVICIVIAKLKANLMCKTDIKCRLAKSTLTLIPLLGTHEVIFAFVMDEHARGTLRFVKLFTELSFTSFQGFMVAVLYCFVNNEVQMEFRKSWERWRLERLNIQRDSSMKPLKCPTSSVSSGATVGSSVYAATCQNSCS
# B1: SEQ ID NO 71 (peptide)
# peptide: H[Aib]EGS[αMeF]TSDV[αMeS]S[αMeF]LEGEAA[αMeK]E[αMeF]IA[αMeF]VV[αMeK]K([γGlu-Palmitoyl])G-NH2
# modifications: N-terminus assumed
# SMILES: CCCCCCCCCCCCCCCC(=O)N[C@@H](CCC(=O)NCCCC[C@H](NC(=O)[C@](C)(CCCCN)NC(=O)[C@@H](NC(=O)[C@@H](NC(=O)[C@](C)(Cc1ccccc1)NC(=O)[C@H](C)NC(=O)[C@@H](NC(=O)[C@](C)(Cc1ccccc1)NC(=O)[C@H](CCC(=O)O)NC(=O)[C@](C)(CCCCN)NC(=O)[C@H](C)NC(=O)[C@H](C)NC(=O)[C@H](CCC(=O)O)NC(=O)CNC(=O)[C@H](CCC(=O)O)NC(=O)[C@H](CC(C)C)NC(=O)[C@](C)(Cc1ccccc1)NC(=O)[C@H](CO)NC(=O)[C@](C)(CO)NC(=O)[C@@H](NC(=O)[C@H](CC(=O)O)NC(=O)[C@H](CO)NC(=O)[C@@H](NC(=O)[C@](C)(Cc1ccccc1)NC(=O)[C@H](CO)NC(=O)CNC(=O)[C@H](CCC(=O)O)NC(=O)C(C)(C)NC(=O)[C@@H](N)Cc1c[nH]cn1)[C@@H](C)O)C(C)C)[C@@H](C)CC)C(C)C)C(C)C)C(=O)NCC(N)=O)C(=O)O
# B2: SEQ ID NO 72 (peptide)
# peptide: H[Aib]EGS[αMeF]TSDV[αMeS]S[αMeF]LEGEAA[αMeK]E[αMeF]IA[αMeF]VVK([γGlu-Palmitoyl])GG-NH2
# modifications: N-terminus assumed
# SMILES: CCCCCCCCCCCCCCCC(=O)N[C@@H](CCC(=O)NCCCC[C@H](NC(=O)[C@@H](NC(=O)[C@@H](NC(=O)[C@](C)(Cc1ccccc1)NC(=O)[C@H](C)NC(=O)[C@@H](NC(=O)[C@](C)(Cc1ccccc1)NC(=O)[C@H](CCC(=O)O)NC(=O)[C@](C)(CCCCN)NC(=O)[C@H](C)NC(=O)[C@H](C)NC(=O)[C@H](CCC(=O)O)NC(=O)CNC(=O)[C@H](CCC(=O)O)NC(=O)[C@H](CC(C)C)NC(=O)[C@](C)(Cc1ccccc1)NC(=O)[C@H](CO)NC(=O)[C@](C)(CO)NC(=O)[C@@H](NC(=O)[C@H](CC(=O)O)NC(=O)[C@H](CO)NC(=O)[C@@H](NC(=O)[C@](C)(Cc1ccccc1)NC(=O)[C@H](CO)NC(=O)CNC(=O)[C@H](CCC(=O)O)NC(=O)C(C)(C)NC(=O)[C@@H](N)Cc1c[nH]cn1)[C@@H](C)O)C(C)C)[C@@H](C)CC)C(C)C)C(C)C)C(=O)NCC(=O)NCC(N)=O)C(=O)O
# B3: SEQ ID NO 74 (peptide)
# peptide: H[Aib]EGS[αMeF]TSDV[αMeS]S[αMeF]LEGEAA[αMeK]E[αMeF]IA[αMeF]K([γGlu-Palmitoyl])V[αMeK]GG-NH2
# modifications: N-terminus assumed
# SMILES: CCCCCCCCCCCCCCCC(=O)N[C@@H](CCC(=O)NCCCC[C@H](NC(=O)[C@](C)(Cc1ccccc1)NC(=O)[C@H](C)NC(=O)[C@@H](NC(=O)[C@](C)(Cc1ccccc1)NC(=O)[C@H](CCC(=O)O)NC(=O)[C@](C)(CCCCN)NC(=O)[C@H](C)NC(=O)[C@H](C)NC(=O)[C@H](CCC(=O)O)NC(=O)CNC(=O)[C@H](CCC(=O)O)NC(=O)[C@H](CC(C)C)NC(=O)[C@](C)(Cc1ccccc1)NC(=O)[C@H](CO)NC(=O)[C@](C)(CO)NC(=O)[C@@H](NC(=O)[C@H](CC(=O)O)NC(=O)[C@H](CO)NC(=O)[C@@H](NC(=O)[C@](C)(Cc1ccccc1)NC(=O)[C@H](CO)NC(=O)CNC(=O)[C@H](CCC(=O)O)NC(=O)C(C)(C)NC(=O)[C@@H](N)Cc1c[nH]cn1)[C@@H](C)O)C(C)C)[C@@H](C)CC)C(=O)N[C@H](C(=O)N[C@@](C)(CCCCN)C(=O)NCC(=O)NCC(N)=O)C(C)C)C(=O)O
# B4: SEQ ID NO 75 (peptide)
# peptide: H[Aib]EGS[αMeF]TSDV[αMeS]S[αMeF]LEGEAA[αMeK]E[αMeF]IAK([γGlu-Palmitoyl])VV[αMeK]GG-NH2
# modifications: N-terminus assumed
# SMILES: CCCCCCCCCCCCCCCC(=O)N[C@@H](CCC(=O)NCCCC[C@H](NC(=O)[C@H](C)NC(=O)[C@@H](NC(=O)[C@](C)(Cc1ccccc1)NC(=O)[C@H](CCC(=O)O)NC(=O)[C@](C)(CCCCN)NC(=O)[C@H](C)NC(=O)[C@H](C)NC(=O)[C@H](CCC(=O)O)NC(=O)CNC(=O)[C@H](CCC(=O)O)NC(=O)[C@H](CC(C)C)NC(=O)[C@](C)(Cc1ccccc1)NC(=O)[C@H](CO)NC(=O)[C@](C)(CO)NC(=O)[C@@H](NC(=O)[C@H](CC(=O)O)NC(=O)[C@H](CO)NC(=O)[C@@H](NC(=O)[C@](C)(Cc1ccccc1)NC(=O)[C@H](CO)NC(=O)CNC(=O)[C@H](CCC(=O)O)NC(=O)C(C)(C)NC(=O)[C@@H](N)Cc1c[nH]cn1)[C@@H](C)O)C(C)C)[C@@H](C)CC)C(=O)N[C@H](C(=O)N[C@H](C(=O)N[C@@](C)(CCCCN)C(=O)NCC(=O)NCC(N)=O)C(C)C)C(C)C)C(=O)O
# B5: SEQ ID NO 76 (peptide)
# peptide: H[Aib]EGS[αMeF]TSDV[αMeS]S[αMeF]LEGEAA[αMeK]E[αMeF]IK([γGlu-Palmitoyl])[αMeF]VV[αMeK]GG-NH2
# modifications: N-terminus assumed
# SMILES: CCCCCCCCCCCCCCCC(=O)N[C@@H](CCC(=O)NCCCC[C@H](NC(=O)[C@@H](NC(=O)[C@](C)(Cc1ccccc1)NC(=O)[C@H](CCC(=O)O)NC(=O)[C@](C)(CCCCN)NC(=O)[C@H](C)NC(=O)[C@H](C)NC(=O)[C@H](CCC(=O)O)NC(=O)CNC(=O)[C@H](CCC(=O)O)NC(=O)[C@H](CC(C)C)NC(=O)[C@](C)(Cc1ccccc1)NC(=O)[C@H](CO)NC(=O)[C@](C)(CO)NC(=O)[C@@H](NC(=O)[C@H](CC(=O)O)NC(=O)[C@H](CO)NC(=O)[C@@H](NC(=O)[C@](C)(Cc1ccccc1)NC(=O)[C@H](CO)NC(=O)CNC(=O)[C@H](CCC(=O)O)NC(=O)C(C)(C)NC(=O)[C@@H](N)Cc1c[nH]cn1)[C@@H](C)O)C(C)C)[C@@H](C)CC)C(=O)N[C@@](C)(Cc1ccccc1)C(=O)N[C@H](C(=O)N[C@H](C(=O)N[C@@](C)(CCCCN)C(=O)NCC(=O)NCC(N)=O)C(C)C)C(C)C)C(=O)O
# B6: SEQ ID NO 78 (peptide)
# peptide: H[Aib]EGS[αMeF]TSDV[αMeS]S[αMeF]LEGEAA[αMeK]EK([γGlu-Palmitoyl])IA[αMeF]VV[αMeK]GG-NH2
# modifications: N-terminus assumed
# SMILES: CCCCCCCCCCCCCCCC(=O)N[C@@H](CCC(=O)NCCCC[C@H](NC(=O)[C@H](CCC(=O)O)NC(=O)[C@](C)(CCCCN)NC(=O)[C@H](C)NC(=O)[C@H](C)NC(=O)[C@H](CCC(=O)O)NC(=O)CNC(=O)[C@H](CCC(=O)O)NC(=O)[C@H](CC(C)C)NC(=O)[C@](C)(Cc1ccccc1)NC(=O)[C@H](CO)NC(=O)[C@](C)(CO)NC(=O)[C@@H](NC(=O)[C@H](CC(=O)O)NC(=O)[C@H](CO)NC(=O)[C@@H](NC(=O)[C@](C)(Cc1ccccc1)NC(=O)[C@H](CO)NC(=O)CNC(=O)[C@H](CCC(=O)O)NC(=O)C(C)(C)NC(=O)[C@@H](N)Cc1c[nH]cn1)[C@@H](C)O)C(C)C)C(=O)N[C@H](C(=O)N[C@@H](C)C(=O)N[C@@](C)(Cc1ccccc1)C(=O)N[C@H](C(=O)N[C@H](C(=O)N[C@@](C)(CCCCN)C(=O)NCC(=O)NCC(N)=O)C(C)C)C(C)C)[C@@H](C)CC)C(=O)O
# Molecular target: T1, GLP-1R (INS1e assay)
# Test: cell-based or functional assay
Binder,INS1e assay EC50 GLP-1 R n1 [nM],INS1e assay EC50 GLP-1 R n2 [nM],INS1e assay EC50 Mean pM GLP-1R [pM]
H[Aib]EGS[αMeF]TSDV[αMeS]S[αMeF]LEGEAAKEFIK([PEG2′-PEG2′-γGlu-Stearoyl])WVVEGG-NH2 [SEQ ID NO 65],2.57,3.74,3160
H[Aib]EGS[αMeF]TSDV[αMeS]S[αMeF]LEGEAAEEFIK([PEG2′-PEG2′-γGlu-Stearoyl])WVVEGG-NH2 [SEQ ID NO 66],45.6,38.8,42200
H[Aib]EGS[αMeF]TSDV[αMeS]S[αMeF]LEGEAA[Aib]EFIK([PEG2′-PEG2′-γGlu-Stearoyl])WVVEGG-NH2 [SEQ ID NO 67],6.15,18.1,12100
H[Aib]EGS[αMeF]TSDV[αMeS]S[αMeF]LEGEAA[αMeK]EFIK([PEG2′-PEG2′-γGlu-Stearoyl])WVVEGG-NH2 [SEQ ID NO 68],2.69,4.87,3780
H[Aib]EGS[αMeF]TSDV[αMeS]S[αMeF]LEGEAAAEFIK([PEG2′-PEG2′-γGlu-Stearoyl])WVVEGG-NH2 [SEQ ID NO 69],19.2,25,22100
B1,0.604,0.841,723
B2,4.26,8.07,6160
B3,0.0774,0.127,102
B4,0.0497,0.063,56
B5,0.326,0.531,429
B6,0.345,0.346,346
